From paper PMC6895045, “Upregulation of tropomyosin alpha-4 chain in patients’ saliva with oral squamous cell carcinoma as demonstrated by Phage display” (Scientific Reports, 2019)

Molecular target: T1, tropomyosin alpha-4 chain (Homo sapiens, UniProt P67936)
T1 construct: Tropomyosin alpha-4 chain, human, UniProtKB P67936; theoretical mass/pI printed as 28,522 kDa/4.67); Denatured protein on a nitrocellulose membrane; identity rests on MALDI-TOF MS of the excised spot; also called TPM4; TMP4; source: endogenous, pooled protein extracts from OSCC tissues, resolved by 2D gel electrophoresis
T1 sequence (P67936 whole entry): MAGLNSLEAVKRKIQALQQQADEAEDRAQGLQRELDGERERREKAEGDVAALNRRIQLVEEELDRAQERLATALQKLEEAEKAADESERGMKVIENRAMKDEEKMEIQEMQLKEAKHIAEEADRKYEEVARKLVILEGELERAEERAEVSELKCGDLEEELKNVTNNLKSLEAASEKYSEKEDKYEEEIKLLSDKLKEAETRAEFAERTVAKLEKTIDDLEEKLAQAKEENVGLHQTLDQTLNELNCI
Test: far-Western, overlay or dot blot; Western blot of a 2D gel (pH 4-7) of OSCC tissue protein extracts on nitrocellulose, probed with scFv-D09, detected with HRP-conjugated rat anti-HA; the spot was excised from the stained gel and identified by MALDI-TOF MS
Conditions: one partner purified

binding result: binds
B1: scFv-D09 (scFv, V domains shown)
VH: QVQLQESGPGLVKPSQTLSLTCAVSGGSISSSNWWSWVRQPPGKGLEWIGEIYHSGSTNYNPSLKSRVTISVDKSKNQFSLKLSSVTAADTAVYYCARQSFPGRAFDIWGQGTMVTVSS
VL: EIVMTQSPATLSVSPGERATLSCRASQSVSSNLAWYQQKPGQAPRLLIYGASTRATGIPARFSGSGSGTEFTLTISSLQSEDFAVYYCQHYNNWLWTFGQGTKVEIK
notes: also called scFv D09 antibody; scFv-D09 clone
